± gives the uncertainty stated by the source.
B1: Max-interacting protein 1, residues 70 to 120; numbered along this chain, P50539 (parent)
chain: STHNELEKNRRAHLRLCLERLKVLIPLGPDCTRHTTLGLLNKAKAHIKKLE

Variants of: B1
Assay: abundance fitness (aPCA) (normalised: wild type 0, dead -1); higher = more abundant; growth selection in yeast, the domain comes from the species named
Conditions: Homo sapiens

Variant	abundance fitness
STHNELEKNRRAHLRLCLERLKVLIPLGPDCTRHTTLGLLNWAKAHIKKLE [K42W]	-0.23 ± 0.087
STHNELEKNRRAHLRACLERLKVLIPLGPDCTRHTTLGLLNKAKAHIKKLE [L16A]	-0.05 ± 0.1
STHNELEKNRRAHLRECLERLKVLIPLGPDCTRHTTLGLLNKAKAHIKKLE [L16E]	0.102 ± 0.12
STHNELEKNRRAHLRKCLERLKVLIPLGPDCTRHTTLGLLNKAKAHIKKLE [L16K]	0.022 ± 0.15
STHNELEKNRRAHLRLCLERLKVLIPLGPDCTRHTTLGLLNKAKAHIPKLE [K48P]	-0.643 ± 0.14
STHNELEKNRRAHLRLCLERLKVLIPLGPDCTRHTTLGLLNKAKAHIWKLE [K48W]	-0.31 ± 0.17
STHNELEKNRRAHLRLCLERLKVLIPLGPDCTRHTTLGLLNKAKAHIEKLE [K48E]	-0.762 ± 0.12
STHNELEKNRRAHLRLCLERLKVLIPLGPDCTRHTTLGLLNKAKAFIKKLE [H46F]	-0.456 ± 0.18
STHNELEKNRRAHLRLCLERLKVLIPLGPDCTRHTTLGLLNKAKADIKKLE [H46D]	-0.973 ± 0.18
STHNELEKNRRAHLRLCLERLKVLIPLGPDCTRHTTLGLLNKAKKHIKKLE [A45K]	-0.057 ± 0.13
STHNELEKNRRAHLRLCLERLKVLPPLGPDCTRHTTLGLLNKAKAHIKKLE [I25P]	-0.334 ± 0.13
STHNELEKNRRAHLRLCLERLKVLEPLGPDCTRHTTLGLLNKAKAHIKKLE [I25E]	-0.384 ± 0.19
STHNELEKNRRAHLGLCLERLKVLIPLGPDCTRHTTLGLLNKAKAHIKKLE [R15G]	-0.383 ± 0.091
STHNELEKNRRAHLRLCLEMLKVLIPLGPDCTRHTTLGLLNKAKAHIKKLE [R20M]	-1 ± 0.16
STHEELEKNRRAHLRLCLERLKVLIPLGPDCTRHTTLGLLNKAKAHIKKLE [N4E]	-0.142 ± 0.17
STHFELEKNRRAHLRLCLERLKVLIPLGPDCTRHTTLGLLNKAKAHIKKLE [N4F]	-0.713 ± 0.2
STHNELEKNRRAHLRLCLERLKVLIPLGPDCTRHTTLGLVNKAKAHIKKLE [L40V]	-0.099 ± 0.085
STHNELEKNRRAHLRLCLERLKVLIPLGPDCTRHTTLGLYNKAKAHIKKLE [L40Y]	-0.617 ± 0.33
STHNELEKNRRAHLRLCLERLKVLIPLGPDCTRHTTLGLPNKAKAHIKKLE [L40P]	-0.89 ± 0.21
STHNELEKNRRAHLRLCLERLKVLIPLGPDCTVHTTLGLLNKAKAHIKKLE [R33V]	-0.293 ± 0.079
STHNELEKNRRAHLRLCLERLKVLIPLGPDCTHHTTLGLLNKAKAHIKKLE [R33H]	-0.247 ± 0.18
STHNELEKNRRAHLRLCHERLKVLIPLGPDCTRHTTLGLLNKAKAHIKKLE [L18H]	-1.12 ± 0.28
STHNELEKNRRAHLRLCLERLKVLIPLGPDCTRHTTLGLLVKAKAHIKKLE [N41V]	-0.707 ± 0.17
STHNELEKNRRAHLRLCLERLKVLIPLGPDCTRHTTLGLLDKAKAHIKKLE [N41D]	-0.322 ± 0.17

Variant	abundance fitness
STHNELEKNRRLHLRLCLERLKVLIPLGPDCTRHTTLGLLNKAKAHIKKLE [A12L]	-0.651 ± 0.1
STHNELEKNRRWHLRLCLERLKVLIPLGPDCTRHTTLGLLNKAKAHIKKLE [A12W]	-0.193 ± 0.1
STHNELEKNRRSHLRLCLERLKVLIPLGPDCTRHTTLGLLNKAKAHIKKLE [A12S]	0.018 ± 0.094
SMHNELEKNRRAHLRLCLERLKVLIPLGPDCTRHTTLGLLNKAKAHIKKLE [T2M]	-0.63 ± 0.098
STHNELEKNRRAHLRLCLERLKVLIPLGPVCTRHTTLGLLNKAKAHIKKLE [D30V]	0.223 ± 0.079
STHNELEKNRRAHLRLCLERLKVLIPLGPDCTRHTTLGLLNKAKAHIKKKE [L50K]	-0.342 ± 0.19
STHNELEKNRRAHLRLCLERLKVLIPLGPDCTRHTTLGLLNKAKAHIKKQE [L50Q]	-0.377 ± 0.13
STHNELEKNRRAHLRLCLERLKVLIPRGPDCTRHTTLGLLNKAKAHIKKLE [L27R]	0.308 ± 0.084
STHNELEKNRRAHLRLCLERLKVKIPLGPDCTRHTTLGLLNKAKAHIKKLE [L24K]	-0.294 ± 0.14
STHNELEKNRRAHLRLCLERLKVNIPLGPDCTRHTTLGLLNKAKAHIKKLE [L24N]	-0.715 ± 0.21
STHNELEKNRRAHLRLCLWRLKVLIPLGPDCTRHTTLGLLNKAKAHIKKLE [E19W]	-0.782 ± 0.13
STHNELEKNRRAHLRLCLERLKVLIPLGPDCTRHTTLGWLNKAKAHIKKLE [L39W]	0.127 ± 0.096
STHNELEKNRRAHLRLCLERLKVLIPLGPDCTRHTTLGCLNKAKAHIKKLE [L39C]	-0.588 ± 0.13
STHNELEKNRRAHLRLCLERLKVLIPLGPDCTRHTTLGLLNKQKAHIKKLE [A43Q]	-0.74 ± 0.2
STHNELEKNRRAHLRLCLERLKVLIPLGPDCTRHTTLGLLNKFKAHIKKLE [A43F]	-0.182 ± 0.12
STHNFLEKNRRAHLRLCLERLKVLIPLGPDCTRHTTLGLLNKAKAHIKKLE [E5F]	-0.514 ± 0.29
STHNMLEKNRRAHLRLCLERLKVLIPLGPDCTRHTTLGLLNKAKAHIKKLE [E5M]	0.119 ± 0.11
STHNELEKNRRAHLRLCLERLNVLIPLGPDCTRHTTLGLLNKAKAHIKKLE [K22N]	-0.572 ± 0.21
STHNELEKNRRAHLRLCLERLKVLIPLGPDCTRHTTLGLLNKAKAHMKKLE [I47M]	-0.25 ± 0.1
STHNELEKNRRAHLRLCLERLKVLIPLGPDCTRHTTLGLLNKAKAHKKKLE [I47K]	-0.858 ± 0.14
STHNELEKNRRAHLRLCLERLKKLIPLGPDCTRHTTLGLLNKAKAHIKKLE [V23K]	0.547 ± 0.13
STHNELEKNRRAHLRLCLERLKALIPLGPDCTRHTTLGLLNKAKAHIKKLE [V23A]	0.488 ± 0.11
STHNELEKNRRAHLRLCLERLKVLIPLGPDCTRHWTLGLLNKAKAHIKKLE [T35W]	0.189 ± 0.097

Reference: the Human Domainome abundance scans (Beltran et al. 2025)
